In the supplement of paper PMC5998384:

Assays:
HeLa Kyoto [1] = experiment: solubility in G1/S (NP-40 vs SDS abundance) (log2 ratio); higher = more soluble; settings: cell cycle stage: G1/S
HeLa Kyoto [2] = experiment: melting temperature (median over replicates), in situ; higher = more thermally stable
HeLa Kyoto [3] = experiment: solubility change mitosis vs G1/S (difference of NP-40 vs SDS log2 ratios) (log2 ratio difference); higher = more soluble in mitosis
HeLa Kyoto [4] = experiment: thermal stability score vs G1/S (z-score of summed log2 fold changes over temperatures); higher = more thermally stable than in G1/S
[5] = cell cycle stage: early G1 (4.5 h after nocodazole release)
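Throughout, for melting temperature (median over replicates), in situ: HeLa Kyoto cells synchronized by double thymidine or nocodazole block, proteins quantified by TMT10plex mass spectrometry, three independent biological replicates.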
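Throughout, for solubility change mitosis vs G1/S (difference of NP-40 vs SDS log2 ratios): synchronized HeLa Kyoto cells (double thymidine block for G1/S, nocodazole release for mitosis), protein amounts in NP-40 versus SDS lysates quantified by mass spectrometry, three biological replicates.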
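Throughout, for solubility in G1/S (NP-40 vs SDS abundance): HeLa Kyoto cells arrested at G1/S by double thymidine block, proteins quantified by TMT10plex mass spectrometry in mild NP-40 versus SDS extracts, three biological replicates.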
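Throughout, for thermal stability score vs G1/S (z-score of summed log2 fold changes over temperatures): synchronized HeLa Kyoto cells, proteins quantified by TMT10plex mass spectrometry, three biological replicates, mitosis taken 0.5 h after nocodazole release, G1/S directly after double thymidine block.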

Sequence	solubility in G1/S (log2) (HeLa Kyoto [1])	melting temperature (HeLa Kyoto [2]; cell cycle stage: G1/S)	melting temperature (HeLa Kyoto [2]; cell cycle stage: mitosis)	solubility change mitosis (log2) (HeLa Kyoto [3])	thermal stability score (HeLa Kyoto [4]; [5])	thermal stability score (HeLa Kyoto [4]; cell cycle stage: mitosis)
MRPMRIFVNDDRHVMAKHSSVYPTQEELEAVQNMVSHTERALKAVSDWIDEQEKGSSEQAESDNMDVPPEDDSKEGAGEQKTEHMTRTLRGVMRVGLVAKGLLLKGDLDLELVLLCKEKPTTALLDKVADNLAIQLAAVTEDKYEILQSVDDAAIVIKNTKEPPLSLTIHLTSPVVREEMEKVLAGETLSVNDPPDVLDRQKCLAALASLRHAKWFQARANGLKSCVIVIRVLRDLCTRVPTWGPLRGWPLELLCEKSIGTANRPMGAGEALRRVLECLASGIVMPDGSGIYDPCEKEATDAIGHLDRQQREDITQSAQHALRLAAFGQLHKVLGMDPLPSKMPKKPKNENPVDYTVQIPPSTTYAITPMKRPMEEDGEEKSPSKKKKKIQKKEEKAEPPQAMNALMRLNQLKPGLQYKLVSQTGPVHAPIFTMSVEVDGNSFEASGPSKKTAKLHVAVKVLQDMGLPTGAEGRDSSKGEDSAEETEAKPAVVAPAPVVEAVSTPSAAFPSDATAEQGPILTKHGKNPVMELNEKRRGLKYELISETGGSHDKRFVMEVEVDGQKFQGAGSNKKVAKAYAALAALEKLFPDTPLALDANKKKRAPVPVRGGPKFAAKPHNPGFGMGGPMHNEVPPPPNLRGRGRGGSIRGRGRGRGFGGANHGGYMNAGAGYGSYGYGGNSATAGYSQFYSNGGHSGNASGGGGGGGGGSSGYGSYYQGDNYNSPVPPKHAGKKQPHGGQQKPSYGSGYQSHQGQQQSYNQSPYSNYGPPQGKQKGYNHGQGSYSYSNSYNSPGGGGGSDYNYESKFNYSGSGGRSGGNSYGSGGASYNPGSHGGYGGGSGGGSSYQGKQGGYSQSNYNSPGSGQNYSGPPSSYQSSQGGYGRNADHSMNYQYR [ILF3]	-0.123	54.1 °C	53.9 °C	0.113	-0.903	-1.89
MKSNPAIQAAIDLTAGAAGGTACVLTGQPFDTMKVKMQTFPDLYRGLTDCCLKTYSQVGFRGFYKGTSPALIANIAENSVLFMCYGFCQQVVRKVAGLDKQAKLSDLQNAAAGSFASAFAALVLCPTELVKCRLQTMYEMETSGKIAKSQNTVWSVIKSILRKDGPLGFYHGLSSTLLREVPGYFFFFGGYELSRSFFASGRSKDELGPVPLMLSGGVGGICLWLAVYPVDCIKSRIQVLSMSGKQAGFIRTFINVVKNEGITALYSGLKPTMIRAFPANGALFLAYEYSRKLMMNQLEAY [SLC25A15]	0.00397	58 °C	56.6 °C	-0.0497	-2.21	-1.66
MARMNRPAPVEVTYKNMRFLITHNPTNATLNKFIEELKKYGVTTIVRVCEATYDTTLVEKEGIHVLDWPFDDGAPPSNQIVDDWLSLVKIKFREEPGCCIAVHCVAGLGRAPVLVALALIEGGMKYEDAVQFIRQKRRGAFNSKQLLYLEKYRPKMRLRFKDSNGHRNNCCIQ [PTP4A1]	-0.131	52.9 °C	53.8 °C	-0.0406	0.98	-0.349
MLVSGRRRLLTVLLQAQKWPFQPSRDMRLVQFRAPHLVGPHLGLETGNGGGVINLNAFDPTLPKTMTQFLEQGEATLSVARRALAAQLPVLPRSEVTFLAPVTRPDKVVCVGMNYVDHCKEQNVPVPKEPIIFSKFASSIVGPYDEVVLPPQSQEVDWEVELAVVIGKKGKHIKATDAMAHVAGFTVAHDVSARDWQMRRNGKQWLLGKTFDTFCPLGPALVTKDSVADPHNLKICCRVNGEVVQSGNTNQMVFKTEDLIAWVSQFVTFYPGDVILTGTPPGVGVFRKPPVFLKKGDEVQCEIEELGVIINKVV [FAHD2A]	0.253	55.7 °C	56.4 °C	-0.192	-1.17	-2.54
MSWVQATLLARGLCRAWGGTCGAALTGTSISQVPRRLPRGLHCSAAAHSSEQSLVPSPPEPRQRPTKALVPFEDLFGQAPGGERDKASFLQTVQKFAEHSVRKRGHIDFIYLALRKMREYGVERDLAVYNQLLNIFPKEVFRPRNIIQRIFVHYPRQQECGIAVLEQMENHGVMPNKETEFLLIQIFGRKSYPMLKLVRLKLWFPRFMNVNPFPVPRDLPQDPVELAMFGLRHMEPDLSARVTIYQVPLPKDSTGAADPPQPHIVGIQSPDQQAALARHNPARPVFVEGPFSLWLRNKCVYYHILRADLLPPEEREVEETPEEWNLYYPMQLDLEYVRSGWDNYEFDINEVEEGPVFAMCMAGAHDQATMAKWIQGLQETNPTLAQIPVVFRLAGSTRELQTSSAGLEEPPLPEDHQEEDDNLQRQQQGQS [ECSIT]	-0.0136	54.4 °C	56.1 °C	-0.1	2.4	3.63
